Test results taken from patent publication US20060242739A1, “Plant nucleotide-sugar pyrophosphatase/phosphodiesterase (nppase), method of obtaining same and use of same in the production of assay devices and in the production of transgenic plants” (Universidad Publica De Navarra, priority 2002, published 2006).

How the values were obtained:
Assay in all cases: purified protein, by the assay type
[1] = substrate: Cc1cn([C@H]2C[C@H](O)[C@@H](COP(=O)(O)OP(=O)(O)O[C@H]3O[C@H](CO)[C@@H](O)[C@H](O)[C@H]3O)O2)c(=O)[nH]c1=O; conditions: other: substrate of NPPase from rice leaves; pH 7.0; 37.0 °C
[2] = substrate: Nc1ccn([C@@H]2O[C@H](COP(=O)(O)OP(=O)(O)O[C@H]3O[C@H](CO)[C@@H](O)[C@H](O)[C@H]3O)[C@@H](O)[C@H]2O)c(=O)n1; conditions: pH 7.0
[3] = substrate: Nc1nc2c(ncn2[C@@H]2O[C@H](COP(=O)(O)OP(=O)(O)O[C@H]3O[C@H](CO)[C@@H](O)[C@H](O)[C@@H]3O)[C@@H](O)[C@H]2O)c(=O)[nH]1; conditions: pH 7.0
[4] = substrate: Nc1nc2c(ncn2[C@@H]2O[C@H](COP(=O)(O)OP(=O)(O)O[C@H]3O[C@H](CO)[C@@H](O)[C@H](O)[C@H]3O)[C@@H](O)[C@H]2O)c(=O)[nH]1; conditions: other: substrate of NPPase from rice leaves; pH 7.0; 37.0 °C
[5] = substrate: Nc1ncnc2c1ncn2[C@@H]1O[C@H](COP(=O)(O)OP(=O)(O)O)[C@@H](O)[C@H]1O; conditions: pH 7.0
[6] = substrate: Nc1ncnc2c1ncn2[C@@H]1O[C@H](COP(=O)(O)OP(=O)(O)OP(=O)(O)O)[C@@H](O)[C@H]1O; conditions: pH 7.0
[7] = substrate: Nc1ncnc2c1ncn2[C@@H]1O[C@H](COP(=O)(O)OP(=O)(O)O[C@H]2O[C@H](CO)[C@@H](O)[C@H](O)[C@H]2O)[C@@H](O)[C@H]1O; conditions: pH 7.0
[8] = substrate: Nc1ncnc2c1ncn2[C@@H]1O[C@H](COP(=O)(O)OS(=O)(=O)O)[C@@H](O)[C@H]1O; conditions: other: substrate of NPPase from rice leaves; pH 7.0; 37.0 °C
[9] = substrate: O=[N+]([O-])c1ccc(OP(=O)(O)Oc2ccc([N+](=O)[O-])cc2)cc1; conditions: pH 7.0
[10] = substrate: NC(=O)c1ccc[n+]([C@@H]2O[C@H](COP(=O)(O)OP(=O)(O)OC[C@H]3O[C@@H](n4cnc5c(N)ncnc54)[C@H](O)[C@@H]3O)[C@@H](O)[C@H]2O)c1; conditions: other: substrate of NPPase from barley leaves; pH 7.0
[11] = substrate: Nc1ncnc2c1ncn2[C@@H]1O[C@H](COP(=O)(O)OP(=O)(O)O[C@H]2O[C@H](CO)[C@@H](O)[C@H](O)[C@@H]2O)[C@@H](O)[C@H]1O; conditions: other: substrate of NPPase from barley leaves; pH 7.0
[12] = substrate: O=[N+]([O-])c1ccc(OP(=O)(O)O)cc1; conditions: other: substrate of NPPase from barley leaves; pH 7.0
[13] = other: substrate of NPPase from rice leaves, 37.0 °C
[14] = other: substrate of NPPase from barley leaves

B1: NPPase from rice leaves (Oryza sativa Japonica Group) (protein)
chain: SRPSSSLEGFQPLSKIAVHKATVDLHGSAFVSATPALLGDQGEDTEWVTVKYGWANPSADDWIAVFSPADFISGSCPNPSRYPDEPLLCTAPIKYQFANYSANYVYWGKGSIRFQLINQRYDFSFALFTGGLENPKLVAVSEAISFKNPKAPVYPRLAQGKSYDEMTVTWTSGYDISEAYPFVEWGMVVAGAAAPTRTAAGTLTFNRGSMCGEPARTVGWRDPGFIHTAFLRDLWPNKEYYYKIGHELSDGSIVWGKQYTFRAPPFPGQNSLQRIIVFGDMGKAERDGSNEFANYQPGSLNTTDRLVEDLDNYDIVFHIGDLPYANGYISQWDQFTAQVAPITAKKPYMIASGNHERDWPNTGGFFDVKDSGGECGVPAETMYYYPAENRANFWYKVDYGMFRFCIADSEHDWREGTDQYKFIEQCLSTVDRKHQPWLIFAAHRVLGYSSNWWYADQGSFEEPEGRESLQRLWQRHRVDVAFFGHVHNYERTCPMYQSQCVSGERRRYSGTMNGTIFVVAGGGGSHLSDYTSAIPKWSVFRDRDFGFVKLTAFNHSSLLFEYKKSSDGKVYDSFTVERDYRDVLSCVHDSCLPTTLAS
[1]
  Km: 600 µM
  Vmax: 106 µmol/min/mg
  kcat/Km: 206000 M⁻¹ s⁻¹
[2]; [13]
  Km: 920 µM
  Vmax: 107 µmol/min/mg
[3]; [13]
  Km: 800 µM
  Vmax: 129 µmol/min/mg
  kcat/Km: 190000 M⁻¹ s⁻¹
[4]
  Km: 930 µM
  Vmax: 119 µmol/min/mg
  kcat/Km: 148000 M⁻¹ s⁻¹
[5]; [13]
  Km: 4330 µM
  Vmax: 385 µmol/min/mg
  kcat/Km: 100000 M⁻¹ s⁻¹
[6]; [13]
  Km: 2060 µM
  Vmax: 356 µmol/min/mg
  kcat/Km: 203000 M⁻¹ s⁻¹
[7]; [13]
  Km: 600 µM
  Vmax: 183 µmol/min/mg
  kcat/Km: 350000 M⁻¹ s⁻¹
[8]
  Km: 3040 µM
[9]; [13]
  Km: 1300 µM
  Vmax: 191 µmol/min/mg
  kcat/Km: 171000 M⁻¹ s⁻¹

B2: NPPase from barley leaves (Hordeum vulgare) (protein)
chain: SDGSVVWAKPYTFRAPPTPGQNSLQRIIVFGDMGKAERDGSNEFANYQPGSLNTTDRLIEDLDNYDIVFHIGDMPYANGYLSQWDQFTAQVAPISAKKPYMVASGNHERDWPNTGGFFDVKDSGGECGVPAETMYYYPAENRANFWYKVDYGMFRFCVGDSEHDWREGTPQYKFIEECLSTVDRKHQPWLIFTAHRVLGYSSNSWYADQGSFEEPEGRESLQKLWQRYRVDIAYFGHVHNYERTCPLYQSQCVNADKTHYSGTMNGTIFVVAGGGGSHLSSYTTAIPKWSIFRDHDYGFTKLTAFNHSSLLFEYMKSSDGKVYDSFTIHRDYRDVLSCVHDSCFPTTLAS
[10]
  Km: 2500 µM
[2]; [14]
  Km: 2800 µM
[3]; [14]
  Km: 400 µM
[5]; [14]
  Km: 3500 µM
[6]; [14]
  Km: 3500 µM
[11]
  Km: 400 µM
[7]; [14]
  Km: 500 µM
[12]
  Km: 500 µM
[9]; [14]
  Km: 300 µM
